Data taken from the supplement of paper PMC9112550, “Optimization of the antimicrobial peptide Bac7 by deep mutational scanning” (BMC Biology, 2022).

Test system: Escherichia coli TOP10
Assay: shrunken log2 fold change of peptide-encoding DNA abundance (4.5 h post-induction vs induction); higher = less antimicrobial activity (less host growth inhibition)
Settings: time post-induction: 4.5 h; library: site-saturation at positions 5, 18, 19, 20
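Further: peptides expressed intracellularly from a pBAD plasmid library in pooled LB shake-flask culture, induced with 0.3% L-arabinose, DNA abundance read by NGS, three biological replicates, DESeq2 with apeglm shrinkage.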

Row | Sequence | shrunken log2 fold change
1 | RRIRMRPPRLPRPRPRPFGDPRP | 0.0178
2 | RRIRCRPPRLPRPRPRPFMPPRP | -0.402
3 | RRIRERPPRLPRPRPRPVTVPRP | -0.0984
4 | RRIRKRPPRLPRPRPRPPEYPRP | 0.0748
5 | RRIRYRPPRLPRPRPRPGEDPRP | -0.00904
6 | RRIRGRPPRLPRPRPRPCVSPRP | 0.265
7 | RRIRVRPPRLPRPRPRPMRFPRP | 0.48
8 | RRIRRRPPRLPRPRPRPDECPRP | 0.746
9 | RRIRIRPPRLPRPRPRPIWEPRP | -0.0114
10 | RRIRSRPPRLPRPRPRPSPQPRP | -0.108
11 | RRIRCRPPRLPRPRPRPYEDPRP | -0.01
12 | RRIRGRPPRLPRPRPRPVSTPRP | 0.691
13 | RRIRWRPPRLPRPRPRPPAPPRP | 1.03
14 | RRIRMRPPRLPRPRPRPDHTPRP | 0.329
15 | RRIRPRPPRLPRPRPRPMHIPRP | -0.105
16 | RRIRARPPRLPRPRPRPECGPRP | 1.23
17 | RRIRHRPPRLPRPRPRPQGDPRP | 0.0795
18 | RRIRMRPPRLPRPRPRPPFTPRP | 0.309
19 | RRIRTRPPRLPRPRPRPHDCPRP | -0.00088
20 | RRIRKRPPRLPRPRPRPHGDPRP | 0.0106
21 | RRIRERPPRLPRPRPRPSHFPRP | 0.000406
22 | RRIRERPPRLPRPRPRPWLLPRP | -1.56
23 | RRIRQRPPRLPRPRPRPEKQPRP | -0.267
24 | RRIRERPPRLPRPRPRPESVPRP | -0.316
25 | RRIRHRPPRLPRPRPRPVTFPRP | 0.00537

Row | Sequence | shrunken log2 fold change
26 | RRIRRRPPRLPRPRPRPEKTPRP | 0.00726
27 | RRIRRRPPRLPRPRPRPPFTPRP | 0.0961
28 | RRIRFRPPRLPRPRPRPTLKPRP | -0.0426
29 | RRIRVRPPRLPRPRPRPWLFPRP | 0.141
30 | RRIRARPPRLPRPRPRPGRYPRP | 0.54
31 | RRIRWRPPRLPRPRPRPRVSPRP | 0.158
32 | RRIRPRPPRLPRPRPRPITYPRP | -0.782
33 | RRIRWRPPRLPRPRPRPTVAPRP | 0.662
34 | RRIRSRPPRLPRPRPRPVPRPRP | 0.427
35 | RRIRYRPPRLPRPRPRPRRKPRP | 0.0824
36 | RRIRQRPPRLPRPRPRPTARPRP | 0.219
37 | RRIRQRPPRLPRPRPRPQTEPRP | -0.128
38 | RRIRHRPPRLPRPRPRPNMIPRP | -0.928
39 | RRIRHRPPRLPRPRPRPISYPRP | 0.121
40 | RRIRRRPPRLPRPRPRPAKKPRP | 1.04
41 | RRIRFRPPRLPRPRPRPDWYPRP | -0.0899
42 | RRIRKRPPRLPRPRPRPMPFPRP | 0.0304
43 | RRIRFRPPRLPRPRPRPEPRPRP | 0.81
44 | RRIRARPPRLPRPRPRPPKPPRP | 0.689
45 | RRIRRRPPRLPRPRPRPWHHPRP | -0.242
46 | RRIRERPPRLPRPRPRPSLEPRP | -0.199
47 | RRIRGRPPRLPRPRPRPAICPRP | 0.555
48 | RRIRWRPPRLPRPRPRPTFYPRP | -0.298
49 | RRIRFRPPRLPRPRPRPYTKPRP | -0.573
50 | RRIRVRPPRLPRPRPRPQLGPRP | -0.0234

Row | Sequence | shrunken log2 fold change
51 | RRIRGRPPRLPRPRPRPPGDPRP | 1.18
52 | RRIRIRPPRLPRPRPRPVVYPRP | -0.312
53 | RRIRRRPPRLPRPRPRPHFCPRP | 0.00733
54 | RRIRARPPRLPRPRPRPIGGPRP | -0.0402
55 | RRIRLRPPRLPRPRPRPMQMPRP | -0.11
56 | RRIRKRPPRLPRPRPRPDKEPRP | -0.2
57 | RRIRGRPPRLPRPRPRPMTAPRP | 0.692
58 | RRIRSRPPRLPRPRPRPSRCPRP | -0.134
59 | RRIRQRPPRLPRPRPRPHKMPRP | 0.246
60 | RRIRFRPPRLPRPRPRPDPLPRP | 0.165
61 | RRIRDRPPRLPRPRPRPGNPPRP | -5.31e-05
62 | RRIRGRPPRLPRPRPRPNLCPRP | -0.0201
63 | RRIRRRPPRLPRPRPRPNINPRP | -0.156
64 | RRIRVRPPRLPRPRPRPFYTPRP | 0.508
65 | RRIRIRPPRLPRPRPRPRNNPRP | -0.355
66 | RRIRSRPPRLPRPRPRPRFDPRP | 0.248
67 | RRIRNRPPRLPRPRPRPHYSPRP | -0.363
68 | RRIRCRPPRLPRPRPRPPSFPRP | 0.175
69 | RRIRYRPPRLPRPRPRPKALPRP | 0.178
70 | RRIRARPPRLPRPRPRPRIQPRP | 0.505
71 | RRIRERPPRLPRPRPRPRPWPRP | 0.298
72 | RRIRKRPPRLPRPRPRPPEGPRP | 1.08
73 | RRIRSRPPRLPRPRPRPSYLPRP | -0.707
74 | RRIRGRPPRLPRPRPRPENSPRP | 0.678
75 | RRIRMRPPRLPRPRPRPVHKPRP | -0.0081

Row | Sequence | shrunken log2 fold change
76 | RRIRLRPPRLPRPRPRPMPMPRP | 0.0663
77 | RRIRDRPPRLPRPRPRPYTYPRP | 0.0218
78 | RRIRDRPPRLPRPRPRPEGYPRP | 0.585
79 | RRIRRRPPRLPRPRPRPHLVPRP | 0.127
80 | RRIRQRPPRLPRPRPRPHSNPRP | -0.0311
81 | RRIRWRPPRLPRPRPRPNTPPRP | 0.144
82 | RRIRNRPPRLPRPRPRPPNEPRP | 0.217
83 | RRIRCRPPRLPRPRPRPSCRPRP | -0.685
84 | RRIRERPPRLPRPRPRPHGNPRP | -0.0832
85 | RRIRYRPPRLPRPRPRPRENPRP | 0.0246
86 | RRIRMRPPRLPRPRPRPLALPRP | 0.0404
87 | RRIRERPPRLPRPRPRPNCGPRP | -0.26
88 | RRIRRRPPRLPRPRPRPQYFPRP | -0.0475
89 | RRIRSRPPRLPRPRPRPMIQPRP | 0.0624
90 | RRIRYRPPRLPRPRPRPQGYPRP | -0.516
91 | RRIRLRPPRLPRPRPRPKKHPRP | -0.154
92 | RRIRCRPPRLPRPRPRPDHVPRP | 0.021
93 | RRIRDRPPRLPRPRPRPMHPPRP | -0.0589
94 | RRIRARPPRLPRPRPRPPWRPRP | 0.816
95 | RRIRLRPPRLPRPRPRPIGHPRP | -0.212
96 | RRIRPRPPRLPRPRPRPFIYPRP | -0.0739
97 | RRIRTRPPRLPRPRPRPVLVPRP | -0.106
98 | RRIRRRPPRLPRPRPRPETLPRP | 0.0675
99 | RRIRRRPPRLPRPRPRPEVAPRP | 0.345
100 | RRIRRRPPRLPRPRPRPNIKPRP | 0.153

Row | Sequence | shrunken log2 fold change
101 | RRIRVRPPRLPRPRPRPSNLPRP | -0.586
102 | RRIRFRPPRLPRPRPRPKESPRP | -0.0731
103 | RRIRERPPRLPRPRPRPGVDPRP | 0.114
104 | RRIRFRPPRLPRPRPRPCCRPRP | -0.332
105 | RRIRLRPPRLPRPRPRPGTKPRP | 0.2
106 | RRIRSRPPRLPRPRPRPFNWPRP | 0.0339
107 | RRIRKRPPRLPRPRPRPTDKPRP | 0.208
108 | RRIRLRPPRLPRPRPRPYFFPRP | -0.45
109 | RRIRLRPPRLPRPRPRPQMVPRP | -0.108
110 | RRIRYRPPRLPRPRPRPQFDPRP | -0.0286
111 | RRIRTRPPRLPRPRPRPAPSPRP | 0.231
112 | RRIRRRPPRLPRPRPRPGRKPRP | 0.332
113 | RRIRWRPPRLPRPRPRPTLRPRP | 0.0881
114 | RRIRCRPPRLPRPRPRPAGKPRP | 0.0831
115 | RRIRVRPPRLPRPRPRPYTGPRP | -0.0211
116 | RRIRCRPPRLPRPRPRPARSPRP | 0.261
117 | RRIRERPPRLPRPRPRPCTHPRP | -1.36
118 | RRIRPRPPRLPRPRPRPCTYPRP | -0.253
119 | RRIRERPPRLPRPRPRPFRMPRP | -0.3
120 | RRIRHRPPRLPRPRPRPGGFPRP | -0.127
121 | RRIRIRPPRLPRPRPRPHQEPRP | -0.01
122 | RRIRSRPPRLPRPRPRPRYNPRP | -0.479
123 | RRIRCRPPRLPRPRPRPYGRPRP | -0.114
124 | RRIRARPPRLPRPRPRPLSMPRP | -0.129
125 | RRIRFRPPRLPRPRPRPQSFPRP | 0.00824
